Here are results for four molecules from patent US20200247886A1 (ZLIP, published 2020).

Assay [1] deals with T1, human CD47 expressed on cells (CD47 expressing CHO cells, Jurkat, HL60, DLD1, Raji) (human, UniProt Q08722 19-292).
T1 construct: also called CHO-CD47; IAP
The experiment in a line: EC50 (nM) as grade, binding on Jurkat cells; legend ++++: <0.05 nM.

For assay [2], the target named is T1, human CD47 expressed on cells (CD47 …). The experiment in a line: flow cytometry on human red blood cells, donor 2, MFI; EC50 (nM) table beside the legend. In general terms: Flow cytometry measures light scatter and fluorescence of single cells or particles in a stream.
In assay [3] the target is T2, CD47 protein (construct not stated; SPR antigen, CD47 coated ELISA plates) (Homo sapiens (Human), UniProt Q08722 19-139, limits assumed).
T2 construct: also called the antigen
Kind of assay: SPR (Biacore T100), affinity (nM) as grade; legend +: >10 nM and <40 nM. (In SPR one partner is held on a chip, and binding of the other changes the refractive index at the surface.)

Assay [4] has as its target T3, human CD47-Fc protein (Novoprotein, Cat#CG18) (human, UniProt Q08722 19-139).
T3 construct: Bought protein; also called CD47-hFc; hCD47-hFc fusion protein; not shown: human IgG Fc of the bought fusion protein
Kind of assay: IC50 (nM) as grade, blocking of soluble CD47 binding to SIRPα-expressing CHO cells; legend ++: >1 nM and <10 nM.

A further assay addresses T4, CHO/mCD47-GFP (mouse, UniProt Q61735).
T4 construct: on the cell surface; also called mouse CD47 expressed on CHO cells; CHO cell expressing mouse CD47
T4 sequence (receptor, looked up): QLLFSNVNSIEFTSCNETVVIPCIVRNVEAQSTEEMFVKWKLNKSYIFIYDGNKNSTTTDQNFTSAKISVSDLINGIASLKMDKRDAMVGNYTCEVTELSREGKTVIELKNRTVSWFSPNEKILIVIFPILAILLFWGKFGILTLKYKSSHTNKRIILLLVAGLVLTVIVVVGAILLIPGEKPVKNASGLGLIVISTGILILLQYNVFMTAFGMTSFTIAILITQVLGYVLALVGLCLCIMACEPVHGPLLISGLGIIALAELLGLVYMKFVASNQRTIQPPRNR
Kind of assay: flow cytometry on CHO cells expressing mouse CD47-GFP, binding percentage.

Assay [5] deals with T1, human CD47 expressed on cells (CD47 …). The experiment in a line: EC50 (nM) as grade, binding on CHO-CD47 cells; legend ++++: <0.05 nM.
The target in assay [6] is T3, human CD47-Fc protein (Novoprotein, …). Kind of assay: IC50 (nM) as grade, neutralizing ELISA, CD47-hFc on SIRPα coated plate; legend ++: >15 nM and <20 nM.
Assay [7] has as its target T1, human CD47 expressed on cells (CD47 …). Kind of assay: flow cytometry on CD47 expressing CHO cells, MFI (FL-4).
The target is the same in assay [8]. Kind of assay: flow cytometry on DLD1 cells, IgG, frequency.
The target of assay [9] is T5, biotin labelled polyhistidine tagged CD47 protein (Novoprotein, Cat#321) (human, UniProt Q08722 19-139, biotin labelled (site not stated)).
T5 construct: Bought protein; also called biotinylated CD47; biotinylated human CD47 protein; not shown: polyhistidine tag
The experiment in a line: flow cytometry blocking assay: antibody mixed with biotinylated human CD47 protein; blocked ligand SIRPα on cells; binding percentage.

In assay [10] the target is T1, human CD47 expressed on cells (CD47 …). The experiment in a line: EC50 (nM) as grade, binding on Jurkat cells; legend ++: >1 nM and <10 nM.
Assay [11] shares this target. The experiment in a line: EC50 (nM) as grade, binding on Jurkat cells; legend +++: >0.05 nM and <1 nM.
Assay [12] addresses T3, human CD47-Fc protein (Novoprotein, …). Kind of assay: IC50 (nM) as grade, blocking of soluble CD47 binding to SIRPα-expressing CHO cells; legend +++: >0.05 nM and <1 nM.
The target is the same in assay [13]. The experiment in a line: IC50 (nM) as grade, neutralizing ELISA, CD47-hFc on SIRPα coated plate; legend +++: >8 nM and <15 nM.
In assay [14] the target is T2, CD47 protein (construct not stated; SPR …). The experiment in a line: SPR (Biacore T100), affinity (nM) as grade; legend -: >40 nM.
The target of assay [15] is T1, human CD47 expressed on cells (CD47 …). The experiment in a line: EC50 (nM) as grade, binding on CHO-CD47 cells; legend +++: >0.05 nM and <1 nM.

B1: ABU3 (antibody, V domains shown)
VH: EVQLQQSGAELVKPGASVKLSCTASGFTIKDTYMHWVKQRPEQGLEWIGRIDPAKDNTKYDPKFQGKATITLDTSSNIAYLQLSSLTSEDTAVYFCARGHYGSSYVVYWGQGTLVTVSA
VL: NILMTQSPKSMSMSVGERVTLSCKASENVGTYVSWYQQKPDQSPKLLIYGASNRYTGVPDRFTGSGSATDFTLTISSVQAEDLADYHCGQSYSYPLTFGAGTKLELK
notes: Murine hybridoma monoclonal antibody
The term EC50 denotes the concentration giving half of the maximal effect. A low value points to greater potency. As a reminder, the IC50 is the midpoint of a concentration-inhibition curve. In the case of B1, the EC50 was below 0.05 nM in assay [1], 1.47 nM in [2] and below 0.05 nM in [5]. The “Affinity by SPR” value in assay [3] was 10 to 40 nM. Moreover, the IC50 in assay [4] fell in the range of 1 to 10 nM; in assay [6] it was 15 to 20 nM. The binding result in the assay with CHO/mCD47-GFP is recorded as “no binding (tested: about 0.4 ug/ml)”.

B2: Positive 2 (benchmark analogue antibody) (antibody, V domains shown)
VH: QVQLQQPGAELVKPGASVMMSCKASGYTFTNYNMHWVKQTPGQGLEWIGTIYPGNDDTSYNQKFKDKATLTADKSSSAAYMQLSSLTSEDSAVYYCARGGYRAMDYWGQTSVTVSS
VL: DVLMTQTPLSLPVSLGDQASISCRSSQSIVYSNGNTYLGWYLQKPGQSPKLLIYKVSNRFSGVPDRFSGSGSGTDFTLKISRVEAEDLGVYHCFQGSHVPYTFGGGTKVEIK
notes: also called Pos
A word on the EC50 (read off the curve): it is the midpoint of the concentration-response curve. Read a low EC50 (read off the curve) as a more potent agent. Turning to B2, the concentration for a half-maximal effect (EC50 (read off the curve)) in assay [7] and in [8] was around 2 nM in each case. Besides, in assay [3], the “Affinity by SPR” value is 10 to 40 nM. The molecule further showed a half-maximal inhibitory concentration (IC50) in [4] of 1 to 10 nM. For the same molecule, in [9], the “IC50 (read off the curve)” value is around 8 nM. The binding result with CHO/mCD47-GFP is reported as “no binding (tested: about 0.4 ug/ml)”. The EC50 in assay [5] is below 0.05 nM; in assay [10] it was 1 to 10 nM.

B3: ABU4 (antibody, V domains shown)
VH: QVQLQQSGPQLVRPGASVKISCKTSGYSFTNYWMQWVKQRPGQGLEWIGMIDPSDSESRLNQKFKDKATLTVDKSSSTAYMQLSSPTFEDSAVYYCARRGSPMITSFAYWGQGTLVTVSA
VL: DVQITQSPSFLAASPGETITINCRASKNIGKYLAWFQEKPGKTNKLLIYSGSTLQSGIPSRFSGSGSGTDFTLTISSLEPEDFAIYYCQQHNEYPYTFGGGTKLEIK
notes: as for B1
With B3, the results for the EC50 in [11], in assay [2] and in assay [5] were 0.05 to 1 nM, 0.34 nM and below 0.05 nM, respectively. Moreover, the “Affinity by SPR” value in [3] lay within 10 to 40 nM. Moreover, in the assay with CHO/mCD47-GFP, the binding result is recorded as “no binding (tested: about 0.4 ug/ml)”. In addition, the IC50 in assay [12] fell in the range of 0.05 to 1 nM; in assay [13] it was 8 to 15 nM.

B4: ABU1 (antibody, V domains shown)
VH: EVKLVESGGGLVQPGGSRKLSCAASGFTFSDYGMAWVRQAPGKGPECVAFISNLAKRIYYVDTVTGRFTISRENAKNTLYLEMSSLRSEDTAMYYCTRAYRYALDYWGQGTTLTVSS
VL: QIVLTQSPAIMSASPGEKVTMTCSASSSVSYMNWYQQKSGTSPKRWIYDTSKLASGVPARFSGSGSGTSYSLTISSMEAEDAATYYCQQWNSNPPTFGTGTKLELK
notes: as for B1
The term Kd denotes a measure of binding affinity in units of concentration. Low readings indicate tighter binding, high ones weaker binding. Take B4: the EC50 was 0.05 to 1 nM in assay [11], 0.05 to 1 nM in [15] and 0.12 nM in assay [2]. The molecule further registered a Kd in assay [14] above 40 nM. Besides, the half-maximal inhibitory concentration (IC50) in assay [4] lay in the range of 1 to 10 nM. The binding result in the assay with CHO/mCD47-GFP is listed as “no binding (tested: about 0.4 ug/ml)”.
